Experimental data as given in article PMC5686067.
Numbering of substitutions follows the chain as printed. Numbers in names are those of the source.

T1: sMepS-6×His-C (soluble MepS without its lipoprotein signal peptide, C-terminal His-tag), P0AFV4
T1 chain: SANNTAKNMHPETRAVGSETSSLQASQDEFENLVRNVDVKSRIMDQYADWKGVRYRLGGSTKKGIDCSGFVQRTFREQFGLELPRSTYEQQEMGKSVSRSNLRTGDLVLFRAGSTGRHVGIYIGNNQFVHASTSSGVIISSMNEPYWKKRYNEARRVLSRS

B1: sNlpI (soluble NlpI without its lipoprotein signal peptide), P0AFB1 A114W (protein)
chain: SNTSWRKSEVLAVPLQPTLQQEVILARMEQILASRALTDDERAQLLYERGVLYDSLGLRALARNDFSQALAIRPDMPEVFNYLGIYLTQAGNFDWAYEAFDSVLELDPTYNYAHLNRGIALYYGGRDKLAQDDLLAFYQDDPNDPFRSLWLYLAEQKLDEKQAKEVLKQHFEKSDKEQWGWNIVEFYLGNISEQTLMERLKADATDNTSLAEHLSETNFYLGKYYLSLGDLDSATALFKLAVANNVHNFVEHRYALLELSLLGQDQDDLAESDQQ
B2: sNlpI (soluble NlpI without its lipoprotein signal peptide) (natural protein)
chain: B1 chain with W95A

Key:
[1] = biological target: T1, sMepS-6×His-C (soluble MepS without its …); assay: ITC; details: chain shown with the change
[2] = biological target: Prc (full-length, C-terminal His-tag) (E. coli) (UniProt P23865)
Chain of Prc (full-length, C-terminal His-tag) (E. coli) (P23865 23-682 limits assumed): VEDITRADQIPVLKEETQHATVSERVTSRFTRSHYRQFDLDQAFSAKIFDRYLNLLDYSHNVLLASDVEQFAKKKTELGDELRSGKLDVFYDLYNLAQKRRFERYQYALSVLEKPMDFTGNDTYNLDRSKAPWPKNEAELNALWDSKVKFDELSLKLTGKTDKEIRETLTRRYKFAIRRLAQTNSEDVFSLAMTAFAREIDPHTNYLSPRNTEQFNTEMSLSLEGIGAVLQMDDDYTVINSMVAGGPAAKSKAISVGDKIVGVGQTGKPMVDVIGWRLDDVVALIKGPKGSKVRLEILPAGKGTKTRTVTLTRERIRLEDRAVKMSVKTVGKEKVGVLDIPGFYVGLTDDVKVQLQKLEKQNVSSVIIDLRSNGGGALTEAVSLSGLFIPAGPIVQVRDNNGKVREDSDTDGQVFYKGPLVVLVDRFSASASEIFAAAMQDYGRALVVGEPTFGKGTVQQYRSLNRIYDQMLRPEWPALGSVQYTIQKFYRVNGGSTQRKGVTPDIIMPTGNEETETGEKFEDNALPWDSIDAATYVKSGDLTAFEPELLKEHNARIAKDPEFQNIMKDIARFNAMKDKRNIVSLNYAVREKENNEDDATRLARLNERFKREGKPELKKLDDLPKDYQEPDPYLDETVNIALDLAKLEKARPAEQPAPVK

[3] = biological target: Prc (full-length, C-terminal His-tag) (E. coli) (UniProt P23865); assay: ITC; iTC200, 20 °C, 20 mM HEPES pH 7.5, 300 mM NaCl, 2 mM 2-mercaptoethanol; 23 µM sMepS or Prc in the cell, 230 µM sNlpI (alone or with equimolar Prc) in the syringe; one binding site model
[4] = biological target: sMepS-6×His-C (soluble MepS without its lipoprotein signal peptide, C-terminal His-tag) (E. coli) (UniProt P0AFV4); assay: as above

Row | Kd [1] [nM] | melting temperature (T m) of Prc-sNlpI in thermal shift assay (Prc alone 40.1 °C) [2] [°C] | Kd [3] [nM] | Kd [4] [nM] | Binder
1 | 1450 | – | – | – | B1
2 | – | 53.6 | < 10 | 750 | B2
